Measurements reported in publication PMC10187677 (RNA, 2023).
Where a chain is given by its changes, count along the chain named.

Experiments:
Test in all cases: pull-down
[1] = target: T1, His6-GIGYF2 GYF domain F592E (human, UniProt Q6Y7W6 529-597, F592E)
T1 sequence (looked up): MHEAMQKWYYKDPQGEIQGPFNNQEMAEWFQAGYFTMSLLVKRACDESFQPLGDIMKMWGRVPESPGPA

[2] = target: T2, His6-GIGYF1 GYF domain F533E (human, UniProt O75420 470-538, F533E)
T2 sequence (looked up): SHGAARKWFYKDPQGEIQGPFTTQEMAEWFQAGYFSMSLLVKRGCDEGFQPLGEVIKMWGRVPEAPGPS

[3] = target: T3, His6-GIGYF2 GYF domain (residues 529-597) (human, UniProt Q6Y7W6 529-597)
T3 sequence (looked up): T1 sequence (looked up) with E64F

[4] = target: T4, His6-GIGYF1 GYF domain (residues 470-538) (human, UniProt O75420 470-538)
T4 sequence (looked up): T2 sequence (looked up) with E64F

Measured: binding result

GWVPPPPGFAP (peptide, UniProt P26651 68-78, looked up) [GST-tagged fragment of the first tetra-proline region of TTP (residues 68-78)]
binds: all assays above
